System: MS2 coat protein
Assay: apparent KD of MS2 coat protein; designed switch direction (-1 OFF switch, 1 ON switch): -1; higher = weaker reporter binding
In short: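 Designed RNA switches with common flanks were made on Illumina chips by stalled E. coli RNA polymerase. Titration with SNAP-549-labelled MS2 coat protein doubled from 0.7 or 1.5 nM up to 3 µM. Apparent KD is each design's median over clusters after curve-fitting normalised fluorescence.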

[1] = Eterna round: R95, input ligand: microRNA oligo, concentration not stated
[2] = Eterna round: R95, input ligand: FMN 200 uM
[3] = Eterna round: R95, input ligand: none
[4] = input ligand: microRNA oligo, concentration not stated

Row | Sequence | apparent KD of MS2 coat protein (input ligand: FMN 200 uM) [nM] | apparent KD of MS2 coat protein (input ligand: none) [nM] | apparent KD of MS2 coat protein [1] [nM] | further results
1 | GCUGGUCGAGGAUAUACAUGAGGAUCACCCAUGUGGUUACGUGACGAUAGUCACGAAUGUAGAAGGCGACCAGC [E3/4-A1] (Eterna round: R97, puzzle: Exclusion 3) | 2200 | 295 | – | –
2 | GUUAAGUGAGGAUAUGGUGAGUAGUGCCAGAGCGCUGCUCACCAGAAGGCACAUGAGGAUCACCCAUGUAUAGC [Mat - Exclusion 4 - Mod of JL - D15] (puzzle: Exclusion 4) | – | – | 13 | –
3 | UUAUACGCUGAGGAUAUCUUCACUGAGAGGUGAAGAGAAGGCGGUACAUGAGGAUCACCCAUGUCUAUGGGCAG [Ex-6 Malc#20] (puzzle: Exclusion 6) | – | – | 312 | apparent KD of MS2 coat protein [2]: 376 nM; apparent KD of MS2 coat protein [3]: 479 nM
4 | GCUUUUCUUUUCCUUUCUUACAUGAGGAUCACCCAUGUUUCUUGUCGUGCUCGCGUUGCUCGUCUGUCUGUCUGUUG [salish99_TOv1_r3_077(!)] (puzzle: Sensor v3, turn-off variant 1) | – | – | 35.1 | apparent KD of MS2 coat protein [2]: 44.4 nM; apparent KD of MS2 coat protein [3]: 50.8 nM
5 | CCCACAAGCUUUUUGCUCGACAUGAGGAUCACCCAUGUUGAAUGGGUUAGAUGUGUGUGAAACACACACAUCUACCU [-32.5, -55.3 kcal, A 27%] (Eterna round: R97, puzzle: Sensor, turn-off variant 1) | 20.3 | 18.6 | – | –
6 | ACAUGAGGAUCACCCAUGUGAAAACAAUGGCUGACACAGAGAUAGGAUAUAUGUGCAUAUCAAACAUAGAAGGGUCAUAACUGG [Deportation 85 - Jieux - Exclusion NG 3] (Eterna round: R96, puzzle: Exclusion NG 3) | – | – | – | apparent KD of MS2 coat protein [4]: 40.6 nM
7 | UAGUGGCAAGGAUAUACAGAGGAGAGGAUUGCAAGAGGUGGACAUGAGGAUCACCCAUGUAGAAGGUGCAGAGA [JR_Exclu2_Sub022] (puzzle: Exclusion 2) | – | – | 252 | –
8 | GCUGCGCGCUGUCGGGCGUCUGGUCUUGGAGGGAUAGACACAUGAGGAUCACCCAUGUUUCGGGUGUUCUUUCUAUA [JR_Sensorv2_tov2_Sub1512] (Eterna round: R96, puzzle: Sensor v2, turn-off variant 2) | 187 | 183 | – | apparent KD of MS2 coat protein [4]: 118 nM
9 | ACAUGAGGAUCACCCAUGUUUUUUGGGUACUCUUGAUACAGCAAGGAUAUGCAUUAUUUAUGUACGCAGAAGGUGCAUUACGUC [JR_ExcNG3_Sub063] (Eterna round: R96, puzzle: Exclusion NG 3) | – | – | – | apparent KD of MS2 coat protein [4]: 837 nM
10 | AUUAAAACAUAGGAUAUCGAAUUUAUCAUUUAACGAGAAGGAUGAACAUGAGGAUCACCCAUGUGGUAUCAUGG [Mat - Exclusion 6 - JL Mod - D6] (puzzle: Exclusion 6) | – | – | 165 | –
11 | AUAGUAGAAGUGAGGAUAUCGUAGAUUUUUUGAAACGAGAAGGCACAUGAGGAUCACCCAUGUAAGAUGGAGGU [JR_BMOE4_Sub052] (puzzle: Brourd's mod of Exclusion 4) | – | – | 219 | apparent KD of MS2 coat protein [2]: 236 nM; apparent KD of MS2 coat protein [3]: 319 nM
12 | GUGGUACAUGAGGAUCACCCAUGUUAGGAUAUCGCGUGAGGUUUUACUUACACACACACGAGAAGGGACGUCUU (puzzle: Exclusion 1) | – | – | 43.2 | –
13 | CGUCUGUAAGGAUAUGGUUACAUAGACAUGAGGAUCACCCAUGUGACGUGGGACUAGUGAUUAGAAGGUACGAACG [EX5 #66] (Eterna round: R97, puzzle: Exclusion 5) | 77 | 78.6 | – | –
14 | UUAUUUAGUGUGAGGAUAUGCUGGUCGAUAGAUCAGCAGAAGGCACAUGAGGAUCACCCAUGUAAUAUAUUAAU [Mat - Exclusion 4 - JL Mod - D33] (puzzle: Brourd's mod of Exclusion 4) | – | – | 50 | apparent KD of MS2 coat protein [2]: 395 nM; apparent KD of MS2 coat protein [3]: 72.7 nM
15 | UUAAAUCAUGUAGGAUAUGCAUAGCAAAGCUAUGCAGAAGGACAUGAGGAUCACCCAUGUGCUUGCGUCCGCGUACGGAUGCUA [Mat - Exclusion NG 1 - Mod of JL - D68] (Eterna round: R96, puzzle: Exclusion NG 1) | 733 | 138 | – | apparent KD of MS2 coat protein [4]: 90.5 nM
16 | GAGGCAUGCUGAGGUCCACACAUGAGGAUCACCCAUGUAAUGACAAGCUUUUUACUCAUCUUAUCGCUAUCGCGUUC [Tiinarre] (puzzle: Sensor v3, turn-off variant 1) | – | – | 66.6 | apparent KD of MS2 coat protein [2]: 19.1 nM; apparent KD of MS2 coat protein [3]: 16.3 nM
17 | AUCAGCUCGUCAGGAUAUAUUAACAUGAGGAUCACCCAUGUAAGAUCAGGCUUCGGCCAAUGUUAAUAGAAGGGACGAGCUGAU [ENG2/12-B2] (Eterna round: R96, puzzle: Exclusion NG 2) | 710 | 133 | – | apparent KD of MS2 coat protein [4]: 29 nM
18 | CCUCAGUAAGGAUAUCAGCUUAUAAAGUUGGUAAUGAGAGCUGAGAAGGUACAUGAGGAUCACCCAUGUUAGUU [JL Zatite mod 5] (puzzle: Exclusion 4) | – | – | 20.9 | –

Row | Sequence | apparent KD of MS2 coat protein (input ligand: FMN 200 uM) [nM] | apparent KD of MS2 coat protein (input ligand: none) [nM] | apparent KD of MS2 coat protein [1] [nM] | further results
19 | AGAAGUAGAAACCGAUCCUACAUGAGGAUCACCCAUGUAGCAAGACGUGCACGCGAAGCUCGUCAGACUACCAGAAA [salish99_TOv1_r3_005] (puzzle: Sensor v3, turn-off variant 1) | – | – | 223 | apparent KD of MS2 coat protein [2]: 159 nM; apparent KD of MS2 coat protein [3]: 337 nM
20 | AGGAUCCUAGGAUAUGCUGGGUAUCGCUGUCGGAGGGACAGACAUGAGGAUCACCCAUGUAGAAGGAGGCGCUC [Eternabot (L1) Solution 5] (Eterna round: R97, puzzle: Exclusion 2) | 3680 | 667 | – | –
21 | UCAUACGAUGAGGAUAUCUCAGUUAAAGUAUUUAGAGAAGGCGUUACAUGAGGAUCACCCAUGUUUAUGGGCAU [Ex-6 Malc#7] (puzzle: Exclusion 6) | – | – | 121 | apparent KD of MS2 coat protein [2]: 178 nM; apparent KD of MS2 coat protein [3]: 190 nM
22 | GGUCCACAUGAGGAUCACCCAUGUUAGGAUAUCUCGCCCGAGCCCAUAUGGGCCAGGCAGAGAAGGAAUGUGAA [Quertixees] (puzzle: Exclusion 1) | – | – | 18.8 | –
23 | CCCGUGUUAGGAUAUACGGCACACCCACCAGCGGGUGUAUAGUAGAAGGAACAUGAGGAUCACCCAUGUAUAAC [Inardiza] (puzzle: Exclusion 4) | – | – | 32.4 | –
24 | AGUGUGUUAGGAUAUCGGAUAUGCUGGAGGAGGUGGAGUUACGAGAAGGAACAUGAGGAUCACCCAUGUAGGAC [JR_Exclu4_Sub049] (puzzle: Exclusion 4) | – | – | 25.7 | –
25 | CGUGUAGGAGUAGGAUAUGCGUCUAGACUACGAGCAGAAGGACUCCAGGACUUGAGGAUCACCCAAGUGCGUCCCGAGCCGUAG [Mutated MS2 EX1.23] (Eterna round: R96, puzzle: Exclusion NG 1) | 11.9 | 12 | – | apparent KD of MS2 coat protein [4]: 11.7 nM
26 | AAUAACAGAGGAUAUACUGUUUUAUGUGUUUGUUGUUUUGAACAUGAGGAUCACCCAUGUAGAAGGCUGAUUAA [JMF 53] (puzzle: Exclusion 2) | – | – | 31.6 | –
27 | UAUUACAAGCGAGAUCCUAACAUGAGGAUCACCCAUGUGCUCGUCUCAUAUAGGACUAUCACGAAAGUGAUAGUCCA [Level Boss var2-01] (puzzle: Sensor v3, turn-off variant 1) | – | – | 140 | apparent KD of MS2 coat protein [2]: 21.5 nM; apparent KD of MS2 coat protein [3]: 15.2 nM
28 | UCAACGCAAGGAUAUACUUGCGGUGAUGUUCGAAUUCUUCUACUUGAGGAUCACCCAAGUAGAAGGUGCGAUGA [jl-ex2.4.62 ViennaUCT mod] (Eterna round: R97, puzzle: Exclusion 2) | 12.5 | 13.4 | – | –
29 | ACGUUUUUUGAGGAUAUGCGAUAUUUUUUUAUCGUAGAAGGCGAUACAUGAGGAUCACCCAUGUUUAUGGGCAU [LRO-Ex6-19] (puzzle: Exclusion 6) | – | – | 143 | –
30 | AAUAAUCAUGUAGGAUAUGCGUGGCAAAGCUAUGCAGAAGGACAUGAGGAUCACCCAUGUUCUAGCGUCUGAGUACAGAUGCUA [Mat - Exclusion NG 1 - Mod of JL - D81] (Eterna round: R96, puzzle: Exclusion NG 1) | 399 | 47.4 | – | apparent KD of MS2 coat protein [4]: 32.1 nM
31 | CUAUGUUAGCAGGAUAUGCCAUUAUUCUUUUUCGCAGAAGGGCUUACAUGAGGAUCACCCAUGUUACAUUUCUU [JR_E6_Sub086] (puzzle: Exclusion 6) | – | – | 16.7 | –
32 | UCAUACGGUGAGGAUAUCUCCACUAAAGUGUGAAGAGAAGGCGCUACAUGAGGAUCACCCAUGUCUAUGGGCAG [Ex-6 Malc#15] (puzzle: Exclusion 6) | – | – | 75 | apparent KD of MS2 coat protein [2]: 37.4 nM; apparent KD of MS2 coat protein [3]: 109 nM
33 | GCAAGACGAGGAUAUUGAGAAGGGAACAUGAGGAUCACCCAUGUGGUGGUUUCGACCGGUCGAGAAGGCGUAGAAC [EX5 B.6] (Eterna round: R97, puzzle: Exclusion 5) | 1150 | 957 | – | –
34 | UAUUAACAAGCAAGAUCCCACAUGAGGAUCACCCAUGUGCUCGUCUUAUAAGGUACUGUGACGAAAGUCACGGUACC [Sensor 3, v1 - 80] (puzzle: Sensor v3, turn-off variant 1) | – | – | 580 | apparent KD of MS2 coat protein [2]: 26.5 nM; apparent KD of MS2 coat protein [3]: 28 nM
35 | GUAGGUUAAGUAAGGAUAUACCUCUGGAAACAGAGGUAGAAGGUACAUGAGGAUCACCCAUGUUUCUCUUUUGC [Mod of Eli 6 - Jieux - Brourd's mod of Exclusion 4] (Eterna round: R97, puzzle: Brourd's mod of Exclusion 4) | 21.8 | 18.7 | – | –

Reference: the supplement of paper PMC9170038
